T1: FcγRIIb (human, UniProt P31994 43-217)
T1 construct: extracellular domain; also called 2b; FcgRIIb
T1 sequence (looked up): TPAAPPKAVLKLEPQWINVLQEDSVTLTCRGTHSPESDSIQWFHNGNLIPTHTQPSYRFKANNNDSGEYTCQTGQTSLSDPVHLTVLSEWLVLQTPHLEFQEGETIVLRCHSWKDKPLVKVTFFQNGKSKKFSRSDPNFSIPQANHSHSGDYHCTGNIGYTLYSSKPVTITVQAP

B1: GpH7-B3 variant G237_09D/GpL16-k0 (antibody, human IgG1, kappa)
heavy: not shown
light: DIVMTQSPLSLPVTPGEPASISCQASESLVHSNRNTYLHWYLQKPGQSPQLLIYKVSNRFSGVPDRFSGSGSGTDFTLKISRVEAEDVGVYYCSQNTHVPPTFGQGTKVEIERTVAAPSVFIFPPSDEQLKSGTASVVCLLNNFYPREAKVQWKVDNALQSGNSQESVTEQDSKDSTYSLSSTLTLSKADYEKHKVYACEVTHQGLSSPVTKSFNRGEC
notes: also called Ho Ab G237_09D
B2: GpH7-B3 variant G237_18N/GpL16-k0 (antibody, human IgG1, kappa)
heavy: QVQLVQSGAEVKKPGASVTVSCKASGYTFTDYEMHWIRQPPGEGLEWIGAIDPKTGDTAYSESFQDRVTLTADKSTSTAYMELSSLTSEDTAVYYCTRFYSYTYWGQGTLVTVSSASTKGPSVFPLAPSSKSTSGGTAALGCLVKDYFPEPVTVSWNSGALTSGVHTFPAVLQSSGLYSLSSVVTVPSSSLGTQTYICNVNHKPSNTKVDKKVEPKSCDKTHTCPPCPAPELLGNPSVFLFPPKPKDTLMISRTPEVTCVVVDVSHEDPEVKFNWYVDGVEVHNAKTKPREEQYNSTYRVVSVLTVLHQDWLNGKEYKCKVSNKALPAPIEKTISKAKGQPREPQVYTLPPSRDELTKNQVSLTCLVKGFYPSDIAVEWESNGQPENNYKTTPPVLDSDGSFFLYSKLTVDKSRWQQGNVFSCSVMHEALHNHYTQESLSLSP
light: DIVMTQSPLSLPVTPGEPASISCQASESLVHSNRNTYLHWYLQKPGQSPQLLIYKVSNRFSGVPDRFSGSGSGTDFTLKISRVEAEDVGVYYCSQNTHVPPTFGQGTKVEIERTVAAPSVFIFPPSDEQLKSGTASVVCLLNNFYPREAKVQWKVDNALQSGNSQESVTEQDSKDSTYSLSSTLTLSKADYEKHKVYACEVTHQGLSSPVTKSFNRGEC
notes: also called Ho Ab G237_18N
B3: GpH7-B3 variant H268_03V/GpL16-k0 (antibody, human IgG1, kappa)
heavy: not shown
light: DIVMTQSPLSLPVTPGEPASISCQASESLVHSNRNTYLHWYLQKPGQSPQLLIYKVSNRFSGVPDRFSGSGSGTDFTLKISRVEAEDVGVYYCSQNTHVPPTFGQGTKVEIERTVAAPSVFIFPPSDEQLKSGTASVVCLLNNFYPREAKVQWKVDNALQSGNSQESVTEQDSKDSTYSLSSTLTLSKADYEKHKVYACEVTHQGLSSPVTKSFNRGEC
notes: also called Ho Ab H268_03V
B4: GpH7-B3 variant G237_15Y/GpL16-k0 (antibody, human IgG1, kappa)
heavy: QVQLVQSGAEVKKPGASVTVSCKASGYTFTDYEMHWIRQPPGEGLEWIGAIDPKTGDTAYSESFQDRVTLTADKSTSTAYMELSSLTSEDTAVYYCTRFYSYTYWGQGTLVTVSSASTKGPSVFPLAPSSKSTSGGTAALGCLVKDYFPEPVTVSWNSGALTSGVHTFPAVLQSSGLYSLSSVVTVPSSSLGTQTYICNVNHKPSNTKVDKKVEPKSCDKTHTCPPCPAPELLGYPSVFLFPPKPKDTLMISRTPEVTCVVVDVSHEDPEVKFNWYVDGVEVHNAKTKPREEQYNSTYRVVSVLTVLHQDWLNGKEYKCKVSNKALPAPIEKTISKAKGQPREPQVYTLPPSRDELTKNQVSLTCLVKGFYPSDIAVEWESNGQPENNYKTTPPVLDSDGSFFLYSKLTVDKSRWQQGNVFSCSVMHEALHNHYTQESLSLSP
light: DIVMTQSPLSLPVTPGEPASISCQASESLVHSNRNTYLHWYLQKPGQSPQLLIYKVSNRFSGVPDRFSGSGSGTDFTLKISRVEAEDVGVYYCSQNTHVPPTFGQGTKVEIERTVAAPSVFIFPPSDEQLKSGTASVVCLLNNFYPREAKVQWKVDNALQSGNSQESVTEQDSKDSTYSLSSTLTLSKADYEKHKVYACEVTHQGLSSPVTKSFNRGEC
notes: also called Ho Ab G237_15Y
B5: GpH7-B3 variant I332_02A/GpL16-k0 (antibody, human IgG1, kappa)
heavy: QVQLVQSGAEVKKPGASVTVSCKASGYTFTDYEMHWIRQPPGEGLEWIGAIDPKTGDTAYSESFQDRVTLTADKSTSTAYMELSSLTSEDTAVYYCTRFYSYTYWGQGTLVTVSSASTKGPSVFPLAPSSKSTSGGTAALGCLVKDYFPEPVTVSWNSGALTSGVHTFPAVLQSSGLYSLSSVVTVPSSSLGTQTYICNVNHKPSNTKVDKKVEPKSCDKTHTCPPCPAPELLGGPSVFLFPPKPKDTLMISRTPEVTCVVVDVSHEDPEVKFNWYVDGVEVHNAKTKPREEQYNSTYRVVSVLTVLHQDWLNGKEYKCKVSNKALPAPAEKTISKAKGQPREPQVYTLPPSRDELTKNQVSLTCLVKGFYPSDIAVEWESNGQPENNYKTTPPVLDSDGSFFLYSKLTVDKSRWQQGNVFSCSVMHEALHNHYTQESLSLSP
light: DIVMTQSPLSLPVTPGEPASISCQASESLVHSNRNTYLHWYLQKPGQSPQLLIYKVSNRFSGVPDRFSGSGSGTDFTLKISRVEAEDVGVYYCSQNTHVPPTFGQGTKVEIERTVAAPSVFIFPPSDEQLKSGTASVVCLLNNFYPREAKVQWKVDNALQSGNSQESVTEQDSKDSTYSLSSTLTLSKADYEKHKVYACEVTHQGLSSPVTKSFNRGEC
notes: also called Ho Ab I332_02A
B6: GpH7-B3 variant L234_20W/GpL16-k0 (antibody, human IgG1, kappa)
heavy: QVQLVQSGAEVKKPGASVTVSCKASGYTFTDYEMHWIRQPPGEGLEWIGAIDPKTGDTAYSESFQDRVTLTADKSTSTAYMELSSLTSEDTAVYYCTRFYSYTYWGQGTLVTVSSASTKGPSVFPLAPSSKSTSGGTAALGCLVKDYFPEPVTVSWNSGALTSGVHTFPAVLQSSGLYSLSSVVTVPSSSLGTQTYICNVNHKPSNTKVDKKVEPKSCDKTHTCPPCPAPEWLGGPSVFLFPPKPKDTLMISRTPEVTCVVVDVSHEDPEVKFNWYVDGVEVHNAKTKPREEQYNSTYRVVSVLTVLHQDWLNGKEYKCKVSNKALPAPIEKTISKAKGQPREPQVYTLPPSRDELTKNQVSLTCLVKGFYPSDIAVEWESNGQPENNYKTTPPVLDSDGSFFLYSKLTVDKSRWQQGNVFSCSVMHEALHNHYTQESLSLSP
light: DIVMTQSPLSLPVTPGEPASISCQASESLVHSNRNTYLHWYLQKPGQSPQLLIYKVSNRFSGVPDRFSGSGSGTDFTLKISRVEAEDVGVYYCSQNTHVPPTFGQGTKVEIERTVAAPSVFIFPPSDEQLKSGTASVVCLLNNFYPREAKVQWKVDNALQSGNSQESVTEQDSKDSTYSLSSTLTLSKADYEKHKVYACEVTHQGLSSPVTKSFNRGEC
notes: also called Ho Ab L234_20W
B7: GpH7-B3 variant K326_08L/GpL16-k0 (antibody, human IgG1, kappa)
heavy: not shown
light: DIVMTQSPLSLPVTPGEPASISCQASESLVHSNRNTYLHWYLQKPGQSPQLLIYKVSNRFSGVPDRFSGSGSGTDFTLKISRVEAEDVGVYYCSQNTHVPPTFGQGTKVEIERTVAAPSVFIFPPSDEQLKSGTASVVCLLNNFYPREAKVQWKVDNALQSGNSQESVTEQDSKDSTYSLSSTLTLSKADYEKHKVYACEVTHQGLSSPVTKSFNRGEC
notes: also called Ho Ab K326_08L
B8: GpH7-B3 variant G237_10E/GpL16-k0 (antibody, human IgG1, kappa)
heavy: not shown
light: DIVMTQSPLSLPVTPGEPASISCQASESLVHSNRNTYLHWYLQKPGQSPQLLIYKVSNRFSGVPDRFSGSGSGTDFTLKISRVEAEDVGVYYCSQNTHVPPTFGQGTKVEIERTVAAPSVFIFPPSDEQLKSGTASVVCLLNNFYPREAKVQWKVDNALQSGNSQESVTEQDSKDSTYSLSSTLTLSKADYEKHKVYACEVTHQGLSSPVTKSFNRGEC
notes: also called Ho Ab G237_10E
B9: GpH7-B3 variant G237_13S/GpL16-k0 (antibody, human IgG1, kappa)
heavy: not shown
light: DIVMTQSPLSLPVTPGEPASISCQASESLVHSNRNTYLHWYLQKPGQSPQLLIYKVSNRFSGVPDRFSGSGSGTDFTLKISRVEAEDVGVYYCSQNTHVPPTFGQGTKVEIERTVAAPSVFIFPPSDEQLKSGTASVVCLLNNFYPREAKVQWKVDNALQSGNSQESVTEQDSKDSTYSLSSTLTLSKADYEKHKVYACEVTHQGLSSPVTKSFNRGEC
notes: also called Ho Ab G237_13S
B10: GpH7-B3 variant H268_15Y/GpL16-k0 (antibody, human IgG1, kappa)
heavy: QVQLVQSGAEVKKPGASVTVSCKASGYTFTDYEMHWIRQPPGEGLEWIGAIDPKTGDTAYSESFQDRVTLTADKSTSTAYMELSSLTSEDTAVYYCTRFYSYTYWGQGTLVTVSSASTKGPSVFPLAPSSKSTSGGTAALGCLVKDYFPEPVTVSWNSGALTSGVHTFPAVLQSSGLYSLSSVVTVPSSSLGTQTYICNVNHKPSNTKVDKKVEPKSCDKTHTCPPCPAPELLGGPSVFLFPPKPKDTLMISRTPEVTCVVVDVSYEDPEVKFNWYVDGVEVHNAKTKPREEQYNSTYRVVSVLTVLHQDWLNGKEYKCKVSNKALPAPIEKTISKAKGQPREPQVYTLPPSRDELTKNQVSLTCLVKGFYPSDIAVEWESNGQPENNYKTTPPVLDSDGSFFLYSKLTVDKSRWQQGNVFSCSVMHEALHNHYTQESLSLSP
light: DIVMTQSPLSLPVTPGEPASISCQASESLVHSNRNTYLHWYLQKPGQSPQLLIYKVSNRFSGVPDRFSGSGSGTDFTLKISRVEAEDVGVYYCSQNTHVPPTFGQGTKVEIERTVAAPSVFIFPPSDEQLKSGTASVVCLLNNFYPREAKVQWKVDNALQSGNSQESVTEQDSKDSTYSLSSTLTLSKADYEKHKVYACEVTHQGLSSPVTKSFNRGEC
notes: also called Ho Ab H268_15Y
B11: GpH7-B3 variant K326_20W/GpL16-k0 (antibody, human IgG1, kappa)
heavy: not shown
light: DIVMTQSPLSLPVTPGEPASISCQASESLVHSNRNTYLHWYLQKPGQSPQLLIYKVSNRFSGVPDRFSGSGSGTDFTLKISRVEAEDVGVYYCSQNTHVPPTFGQGTKVEIERTVAAPSVFIFPPSDEQLKSGTASVVCLLNNFYPREAKVQWKVDNALQSGNSQESVTEQDSKDSTYSLSSTLTLSKADYEKHKVYACEVTHQGLSSPVTKSFNRGEC
notes: also called Ho Ab K326_20W
B12: GpH7-B3 variant H268_05P/GpL16-k0 (antibody, human IgG1, kappa)
heavy: not shown
light: DIVMTQSPLSLPVTPGEPASISCQASESLVHSNRNTYLHWYLQKPGQSPQLLIYKVSNRFSGVPDRFSGSGSGTDFTLKISRVEAEDVGVYYCSQNTHVPPTFGQGTKVEIERTVAAPSVFIFPPSDEQLKSGTASVVCLLNNFYPREAKVQWKVDNALQSGNSQESVTEQDSKDSTYSLSSTLTLSKADYEKHKVYACEVTHQGLSSPVTKSFNRGEC
notes: also called Ho Ab H268_05P
B13: GpH7-B3 variant I336_08L/GpL16-k0 (antibody, human IgG1, kappa)
heavy: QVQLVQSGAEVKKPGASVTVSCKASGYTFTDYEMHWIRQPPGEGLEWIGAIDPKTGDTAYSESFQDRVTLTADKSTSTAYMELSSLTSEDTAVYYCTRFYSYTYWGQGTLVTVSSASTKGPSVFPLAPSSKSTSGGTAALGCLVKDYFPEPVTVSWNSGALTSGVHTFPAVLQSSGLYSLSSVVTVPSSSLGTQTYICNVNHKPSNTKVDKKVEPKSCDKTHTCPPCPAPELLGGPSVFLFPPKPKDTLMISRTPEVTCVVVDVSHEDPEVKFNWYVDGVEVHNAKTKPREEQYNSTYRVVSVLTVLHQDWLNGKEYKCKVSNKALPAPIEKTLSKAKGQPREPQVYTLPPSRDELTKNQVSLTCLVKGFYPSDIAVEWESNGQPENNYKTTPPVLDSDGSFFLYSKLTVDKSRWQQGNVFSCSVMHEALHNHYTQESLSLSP
light: DIVMTQSPLSLPVTPGEPASISCQASESLVHSNRNTYLHWYLQKPGQSPQLLIYKVSNRFSGVPDRFSGSGSGTDFTLKISRVEAEDVGVYYCSQNTHVPPTFGQGTKVEIERTVAAPSVFIFPPSDEQLKSGTASVVCLLNNFYPREAKVQWKVDNALQSGNSQESVTEQDSKDSTYSLSSTLTLSKADYEKHKVYACEVTHQGLSSPVTKSFNRGEC
notes: also called Ho Ab I336_08L
B14: GpH7-B3 variant I336_06M/GpL16-k0 (antibody, human IgG1, kappa)
heavy: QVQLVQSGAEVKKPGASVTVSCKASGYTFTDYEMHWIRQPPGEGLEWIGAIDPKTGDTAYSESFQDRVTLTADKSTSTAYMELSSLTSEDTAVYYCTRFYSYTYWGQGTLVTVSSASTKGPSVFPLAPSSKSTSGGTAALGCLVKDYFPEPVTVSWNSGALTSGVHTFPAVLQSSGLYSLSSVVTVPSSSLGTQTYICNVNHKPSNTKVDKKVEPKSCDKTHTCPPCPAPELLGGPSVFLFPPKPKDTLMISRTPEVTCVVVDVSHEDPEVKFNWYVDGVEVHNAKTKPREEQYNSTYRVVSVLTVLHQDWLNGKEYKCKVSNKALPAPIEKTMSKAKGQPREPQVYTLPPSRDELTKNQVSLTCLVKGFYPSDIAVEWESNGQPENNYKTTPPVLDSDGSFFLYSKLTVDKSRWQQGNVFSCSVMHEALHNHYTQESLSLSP
light: DIVMTQSPLSLPVTPGEPASISCQASESLVHSNRNTYLHWYLQKPGQSPQLLIYKVSNRFSGVPDRFSGSGSGTDFTLKISRVEAEDVGVYYCSQNTHVPPTFGQGTKVEIERTVAAPSVFIFPPSDEQLKSGTASVVCLLNNFYPREAKVQWKVDNALQSGNSQESVTEQDSKDSTYSLSSTLTLSKADYEKHKVYACEVTHQGLSSPVTKSFNRGEC
notes: also called Ho Ab I336_06M
B15: GpH7-B3 variant G237_20W/GpL16-k0 (antibody, human IgG1, kappa)
heavy: not shown
light: DIVMTQSPLSLPVTPGEPASISCQASESLVHSNRNTYLHWYLQKPGQSPQLLIYKVSNRFSGVPDRFSGSGSGTDFTLKISRVEAEDVGVYYCSQNTHVPPTFGQGTKVEIERTVAAPSVFIFPPSDEQLKSGTASVVCLLNNFYPREAKVQWKVDNALQSGNSQESVTEQDSKDSTYSLSSTLTLSKADYEKHKVYACEVTHQGLSSPVTKSFNRGEC
notes: also called Ho Ab G237_20W
B16: GpH7-B3 variant L234_09D/GpL16-k0 (antibody, human IgG1, kappa)
heavy: not shown
light: DIVMTQSPLSLPVTPGEPASISCQASESLVHSNRNTYLHWYLQKPGQSPQLLIYKVSNRFSGVPDRFSGSGSGTDFTLKISRVEAEDVGVYYCSQNTHVPPTFGQGTKVEIERTVAAPSVFIFPPSDEQLKSGTASVVCLLNNFYPREAKVQWKVDNALQSGNSQESVTEQDSKDSTYSLSSTLTLSKADYEKHKVYACEVTHQGLSSPVTKSFNRGEC
notes: also called Ho Ab L234_09D
B17: GpH7-B3 variant L235_04F/GpL16-k0 (antibody, human IgG1, kappa)
heavy: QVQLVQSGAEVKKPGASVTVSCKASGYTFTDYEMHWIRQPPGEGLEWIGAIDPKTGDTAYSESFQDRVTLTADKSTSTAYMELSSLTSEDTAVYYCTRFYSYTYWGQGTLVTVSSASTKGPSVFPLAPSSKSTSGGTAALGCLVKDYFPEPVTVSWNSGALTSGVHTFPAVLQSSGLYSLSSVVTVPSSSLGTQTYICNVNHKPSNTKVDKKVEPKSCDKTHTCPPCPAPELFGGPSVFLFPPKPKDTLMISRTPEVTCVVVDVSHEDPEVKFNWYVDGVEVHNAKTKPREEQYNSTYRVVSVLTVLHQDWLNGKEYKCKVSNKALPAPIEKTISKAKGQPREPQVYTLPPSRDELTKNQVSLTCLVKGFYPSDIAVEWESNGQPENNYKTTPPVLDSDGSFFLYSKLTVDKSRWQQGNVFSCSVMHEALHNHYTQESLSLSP
light: DIVMTQSPLSLPVTPGEPASISCQASESLVHSNRNTYLHWYLQKPGQSPQLLIYKVSNRFSGVPDRFSGSGSGTDFTLKISRVEAEDVGVYYCSQNTHVPPTFGQGTKVEIERTVAAPSVFIFPPSDEQLKSGTASVVCLLNNFYPREAKVQWKVDNALQSGNSQESVTEQDSKDSTYSLSSTLTLSKADYEKHKVYACEVTHQGLSSPVTKSFNRGEC
notes: also called Ho Ab L235_04F
B18: GpH7-B3 variant K326_07I/GpL16-k0 (antibody, human IgG1, kappa)
heavy: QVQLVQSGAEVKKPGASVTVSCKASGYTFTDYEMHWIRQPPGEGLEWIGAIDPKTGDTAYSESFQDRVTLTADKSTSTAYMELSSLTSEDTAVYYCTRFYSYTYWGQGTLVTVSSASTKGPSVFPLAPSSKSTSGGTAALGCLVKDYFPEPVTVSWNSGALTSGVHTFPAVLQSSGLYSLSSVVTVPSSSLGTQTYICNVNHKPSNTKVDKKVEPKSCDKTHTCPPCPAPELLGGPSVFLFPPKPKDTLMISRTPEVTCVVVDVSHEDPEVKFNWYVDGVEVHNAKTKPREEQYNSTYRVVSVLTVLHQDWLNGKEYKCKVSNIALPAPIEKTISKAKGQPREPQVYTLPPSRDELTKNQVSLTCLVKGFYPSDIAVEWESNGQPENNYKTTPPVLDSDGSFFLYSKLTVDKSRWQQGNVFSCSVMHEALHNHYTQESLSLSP
light: DIVMTQSPLSLPVTPGEPASISCQASESLVHSNRNTYLHWYLQKPGQSPQLLIYKVSNRFSGVPDRFSGSGSGTDFTLKISRVEAEDVGVYYCSQNTHVPPTFGQGTKVEIERTVAAPSVFIFPPSDEQLKSGTASVVCLLNNFYPREAKVQWKVDNALQSGNSQESVTEQDSKDSTYSLSSTLTLSKADYEKHKVYACEVTHQGLSSPVTKSFNRGEC
notes: also called Ho Ab K326_07I
B19: GpH7-B3 variant G237_19Q/GpL16-k0 (antibody, human IgG1, kappa)
heavy: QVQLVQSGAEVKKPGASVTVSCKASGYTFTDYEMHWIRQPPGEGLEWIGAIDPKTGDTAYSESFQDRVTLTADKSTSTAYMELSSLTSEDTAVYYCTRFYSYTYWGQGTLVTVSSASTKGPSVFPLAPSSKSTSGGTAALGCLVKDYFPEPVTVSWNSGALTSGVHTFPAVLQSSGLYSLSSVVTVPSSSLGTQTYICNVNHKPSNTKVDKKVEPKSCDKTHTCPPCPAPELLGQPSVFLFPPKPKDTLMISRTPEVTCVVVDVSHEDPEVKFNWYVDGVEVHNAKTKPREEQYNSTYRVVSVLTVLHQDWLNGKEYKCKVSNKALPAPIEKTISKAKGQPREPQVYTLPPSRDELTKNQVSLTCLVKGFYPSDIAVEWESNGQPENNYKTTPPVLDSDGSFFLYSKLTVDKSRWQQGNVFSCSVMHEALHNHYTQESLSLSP
light: DIVMTQSPLSLPVTPGEPASISCQASESLVHSNRNTYLHWYLQKPGQSPQLLIYKVSNRFSGVPDRFSGSGSGTDFTLKISRVEAEDVGVYYCSQNTHVPPTFGQGTKVEIERTVAAPSVFIFPPSDEQLKSGTASVVCLLNNFYPREAKVQWKVDNALQSGNSQESVTEQDSKDSTYSLSSTLTLSKADYEKHKVYACEVTHQGLSSPVTKSFNRGEC
notes: also called Ho Ab G237_19Q
B20: GpH7-B3 variant L234_10E/GpL16-k0 (antibody, human IgG1, kappa)
heavy: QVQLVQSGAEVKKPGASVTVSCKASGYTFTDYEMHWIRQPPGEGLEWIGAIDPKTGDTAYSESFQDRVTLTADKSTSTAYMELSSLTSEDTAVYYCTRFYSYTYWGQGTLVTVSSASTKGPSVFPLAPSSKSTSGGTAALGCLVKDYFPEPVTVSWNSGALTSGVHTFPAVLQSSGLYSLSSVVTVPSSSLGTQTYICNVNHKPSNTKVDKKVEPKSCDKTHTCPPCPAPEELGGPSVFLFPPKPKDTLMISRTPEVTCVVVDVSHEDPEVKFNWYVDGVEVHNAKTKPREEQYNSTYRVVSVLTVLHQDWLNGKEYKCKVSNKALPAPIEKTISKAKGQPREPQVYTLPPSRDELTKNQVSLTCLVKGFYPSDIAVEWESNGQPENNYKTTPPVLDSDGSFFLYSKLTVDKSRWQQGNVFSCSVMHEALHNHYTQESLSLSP
light: DIVMTQSPLSLPVTPGEPASISCQASESLVHSNRNTYLHWYLQKPGQSPQLLIYKVSNRFSGVPDRFSGSGSGTDFTLKISRVEAEDVGVYYCSQNTHVPPTFGQGTKVEIERTVAAPSVFIFPPSDEQLKSGTASVVCLLNNFYPREAKVQWKVDNALQSGNSQESVTEQDSKDSTYSLSSTLTLSKADYEKHKVYACEVTHQGLSSPVTKSFNRGEC
notes: also called Ho Ab L234_10E
B21: GpH7-B3 variant I332_14T/GpL16-k0 (antibody, human IgG1, kappa)
heavy: not shown
light: DIVMTQSPLSLPVTPGEPASISCQASESLVHSNRNTYLHWYLQKPGQSPQLLIYKVSNRFSGVPDRFSGSGSGTDFTLKISRVEAEDVGVYYCSQNTHVPPTFGQGTKVEIERTVAAPSVFIFPPSDEQLKSGTASVVCLLNNFYPREAKVQWKVDNALQSGNSQESVTEQDSKDSTYSLSSTLTLSKADYEKHKVYACEVTHQGLSSPVTKSFNRGEC
notes: also called Ho Ab I332_14T

What follows are binders tested against T1, FcγRIIb (assay: SPR (Biacore), binding relative to GpH7-B3/GpL16-k0 = 100).
Procedure: Analysis of interaction between objective antibody and the FcγR was carried out using Biacore T100 (GE Healthcare). HBS-EP+ (GE Healthcare) was used as the running buffer, and the measurement temperature was set to 25° C. Chips produced by immobilizing the antigen peptide by the amine coupling method to a Series S Sencor Chip CM5 (GE Healthcare), or alternatively, chips produced by allowing preliminarily biotinylated antigen peptides to interact with and immobilize onto a Series S Sensor Chip SA (certified) (GE Healthcare) were used. Antibodies of interest were captured onto an antigen peptide-immobilized chip, and allowed to interact to each FcγR diluted with running buffer. To regenerate and repeatedly use the chip, the antibodies captured on the chip were washed off by reacting 10 mM glycine-HCl, pH 1.5.
The FcγR-binding activity of each antibody was assessed primarily using as an indicator the FcγR-binding activity and dissociation constant for FcγR.

Point of comparison: B17, Ho/Con_2b 111 % of control. Against it:
- B1 — lower, 92.9 % of control
- B2 — lower, 63.9 % of control
- B3 — lower, 109 % of control
- B4 — lower, 83.1 % of control
- B5 — lower, 81.8 % of control
- B6 — lower, 80.6 % of control
- B7 — higher, 168 % of control
- B8 — lower, 17.8 % of control
- B9 — lower, 25.7 % of control
- B10 — lower, 104 % of control
- B11 — higher, 132 % of control
- B12 — lower, 109 % of control
- B13 — lower, 103 % of control
- B14 — lower, 90.1 % of control
- B15 — higher, 166 % of control
- B16 — lower, 68.5 % of control
- B18 — higher, 170 % of control
- B19 — lower, 5.3 % of control
- B20 — lower, 54.9 % of control
- B21 — lower, 106 % of control
